Data from US20090099826A1 (published 2009).

T1: BIR3 domain of XIAP (residues 252-350), wild type
T1 chain: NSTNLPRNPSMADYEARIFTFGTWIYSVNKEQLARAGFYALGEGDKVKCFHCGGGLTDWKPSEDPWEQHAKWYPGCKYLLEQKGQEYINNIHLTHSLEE


Legend:
[1] = biological target: the molecule itself; assay: sedimentation equilibrium, analytical ultracentrifugation (self-association)
Description: To accurately determine the basal state of caspase-9 in solution, the molecular weight of caspase-9 was examined by sedimentation equilibrium analysis using analytical ultra-centrifugation (Table 2). […] In addition, this analysis confirms that the XIAP-BIR3 domain forms a stable hetero-dimer with the caspase-9 monomer (Table 2).
Analytical ultracentrifugation. Protein samples were prepared in 10 mM Tris-HCl, pH 8.0, 100 mM NaCl, and 2 mm DTT. All sedimentation equilibrium experiments were carried out at 4° C. using a Beckman Optima XL-A analytical ultracentrifuge equipped with an An60 Ti rotor and using six-channel, 12 mm path length, charcoal-filled Epon centerpieces and quartz windows. Data were collected at four rotor speeds (10,000, 15,000, 20,000, and 25,000 rpm) and represent the average of twenty scans using a scan step-size of 0.001 cm. Partial specific volumes and solution density were calculate using the Sednterp program. Data were analyzed using the WinNONOLIN program from the Analytical Ultracentrifugation Facility at the University of Connecticut (Storrs, Conn.).

[2] = biological target: T1, BIR3 domain of XIAP (residues 252-350), …
[3] = biological target: XIAP-BIR3 point mutant P325G
[4] = biological target: XIAP-BIR3 point mutant G326E
[5] = biological target: XIAP-BIR3 point mutant L344A
[6] = biological target: XIAP-BIR3 point mutant H343A

Protein	binding result [1]	cleavage of procaspase-3 (C163A) by caspase-9, SDS-PAGE [2]	cleavage of procaspase-3 (C163A) by caspase-9, SDS-PAGE [3]	cleavage of procaspase-3 (C163A) by caspase-9, SDS-PAGE [4]	cleavage of procaspase-3 (C163A) by caspase-9, SDS-PAGE [5]	cleavage of procaspase-3 (C163A) by caspase-9, SDS-PAGE [6]
Procaspase-9 zymogen (residues 139-416) (enzyme, mammalian, UniProt P55211 139-416, looked up, range 139-416; Used here for self-association; also called unprocessed procaspase-9 zymogen) VGALESLRGNADLAYILSMEPCGHCLIINNVNFCRESGLRTRTGSNIDCEKLRRRFSSLHFMVEVKGDLTAKKMVLALLELAQQDHGALDCCVVVILSHGCQASHLQFPGAVYGTDGCPVSVEKIVNIFNGTSCPSLGGKPKLFFIQACGGEQKDHGFEVASTSPEDESPGSNPEPDATPFQEGLRTFDQLDAISSLPTPSDIFVSYSTFPGFVSWRDPKSGSWYVETLDDIFEQWAHSEDLQSLLLRVANAVSVKGIYKQMPGCFNFLRKKLFFKTS	no binding (tested: 20 µM)					
caspase-9, wild-type, processed catalytic domain (residues 139-315 and 316-416) (protein) chain 1: VGALESLRGNADLAYILSMEPCGHCLIINNVNFCRESGLRTRTGSNIDCEKLRRRFSSLHFMVEVKGDLTAKKMVLALLELAQQDHGALDCCVVVILSHGCQASHLQFPGAVYGTDGCPVSVEKIVNIFNGTSCPSLGGKPKLFFIQACGGEQKDHGFEVASTSPEDESPGSNPEPD chain 2: ATPFQEGLRTFDQLDAISSLPTPSDIFVSYSTFPGFVSWRDPKSGSWYVETLDDIFEQWAHSEDLQSLLLRVANAVSVKGIYKQMPGCFNFLRKKLFFKTS		incubation with the WT BIR3 protein (residues 252-350) resulted in the efficient inhibition of the activity (lane 2)	led to loss of this inhibition as judged by the cleavage of procaspase-3 precursor	led to loss of this inhibition as judged by the cleavage of procaspase-3 precursor	led to loss of this inhibition as judged by the cleavage of procaspase-3 precursor	led to loss of this inhibition as judged by the cleavage of procaspase-3 precursor
